Legend:
[1] = test system: HLA-A*01:01, HLA-A*02:01, HLA-A*03:01, HLA-A*24:02, HLA-B*07:02, HLA-B*08:01 and HLA-B*44:02; assay: HLA alleles the peptides bind to (Table 7); assay type: binding, human; settings: allotype from the group HLA-A*01:01, HLA-A*02:01, HLA-A*03:01, HLA-A*24:02, HLA-B*07:02, HLA-B*08:01, HLA-B*44:02
Source text: However, due to similarities in binding pattern such as the relevant anchoring positions some peptides bind to more than one allele, such an overlap is most likely, but not limited to, HLA-A*01 binding peptides also binding to HLA-B*15, HLA-A*03 binding peptides also binding to HLA-A*11, HLA-B*07 binding peptides also binding to HLA-B*35 and HLA-B*51.

HLA-A*24:02 = HLA-A*24:02 (Homo sapiens, UniProt P04439, D101N/D140Y/D185E/E176V/E190D/F33S/G103R/G107R/I119L/I121M/I306V/K335N/L105A/L180Q/L300P/N151K/N90K/Q86E/Q94H/R106L/R138H/R89G/T104I/T345S/V100E/W191G/Y123F); assay: MHC binding assay, UV-ligand exchange ELISA; settings: peptide exchange yield, binding to HLA-A*24:02
Source text: (§1) Candidate peptides for T cell based therapies according to the present invention were further tested for their MHC binding capacity (affinity). The individual peptide-MHC complexes were produced by UV-ligand exchange, where a UV-sensitive peptide is cleaved upon UV-irradiation and exchanged with the peptide of interest as analyzed. Only peptide candidates that can effectively bind and stabilize the peptide-receptive MHC molecules prevent dissociation of the MHC complexes. To determine the yield of the exchange reaction, an ELISA was performed based on the detection of the light chain (β2m) of stabilized MHC complexes. The assay was performed as generally described in Rodenko et al. (Rodenko et al., 2006).
(§2) 96 well MAXISorp plates (NUNC) were coated over night with 2 μg/ml streptavidin in PBS at room temperature, washed 4× and blocked for 1 h at 37° C. in 2% BSA containing blocking buffer. Refolded HLA-A*02:01/MLA-001 monomers served as standards, covering the range of 15-500 ng/ml. Peptide-MHC monomers of the UV-exchange reaction were diluted 100-fold in blocking buffer. Samples were incubated for 1 h at 37° C., washed four times, incubated with 2 μg/ml HRP conjugated anti-82m for 1 h at 37° C., washed again and detected with TMB solution that is stopped with […]. Absorption was measured at 450 nm. Candidate peptides that show a high exchange yield (preferably higher than 50%, most preferred higher than 75%) are generally preferred for a generation and production of antibodies or fragments thereof, and/or T cell receptors or fragments thereof, as they show sufficient avidity to the MHC molecules and prevent dissociation of the MHC complexes.

HLA-A*02:01 = HLA-A*02:01 (Homo sapiens, UniProt P04439, D140Y/D185E/D98H/E176V/E277Q/G131W/G231S/I119V/I121R/I166T/I218V/L300P/L318F/N151K/N90K/P208A/P217A/Q86G/Q94H/R138H/R169H/T345S); assay: MHC binding assay, UV-ligand exchange ELISA; settings: peptide exchange yield, binding to HLA-A*02:01
Source text: as §1, §2

HLA-B*07:0 = HLA-B*07:0 (Homo sapiens, UniProt P01889); assay: MHC binding assay, UV-ligand exchange ELISA; settings: peptide exchange yield, binding to HLA-B*07:0
Source text: as §1, §2

Substance | Binders (HLA alleles the peptides according to the invention bind to) [1] | Peptide exchange (HLA-A*24:02) | Peptide exchange (HLA-A*02:01) | Peptide exchange (HLA-B*07:0)
3 (VYIASSFKI; listed as Homo sapiens) [compound 3] | HLA-A*24:02 | ++++ (75% = ++++) |  | 
4 (IQAPALLKV; listed as Homo sapiens) [compound 4] | HLA-A*02:01 |  | ++++ (≥75% = ++++) | 
6 (SHSLPAFTL; listed as Homo sapiens) [compound 6] | HLA-A*24:02 | ++ (20% = ++) |  | 
7 (IYIPTNSIYKF; listed as Homo sapiens) [compound 7] | HLA-A*24:02 | ++++ (75% = ++++) |  | 
9 (LLGVVSHSV; listed as Homo sapiens) [compound 9] | HLA-A*02:01 |  | ++++ (≥75% = ++++) | 
13 (LYDTVTHTF; listed as Homo sapiens) [compound 13] | HLA-A*24:02 | ++++ (75% = ++++) |  | 
14 (ILAPPQRISF; listed as Homo sapiens) [compound 14] | HLA-A*24:02 | ++++ (75% = ++++) |  | 
16 (NFHTLAQQLLF; listed as Homo sapiens) [compound 16] | HLA-A*24:02 | ++++ (75% = ++++) |  | 
31 (VFLLLPYPRF; listed as Homo sapiens) [compound 31] | HLA-A*24:02 | ++++ (75% = ++++) |  | 
33 (AYIPFPPLI; listed as Homo sapiens) [compound 33] | HLA-A*24:02 | ++++ (75% = ++++) |  | 
40 (LYQTTIELF; listed as Homo sapiens) [compound 40] | HLA-A*24:02 | ++++ (75% = ++++) |  | 
43 (VFIPSVINL; listed as Homo sapiens) [compound 43] | HLA-A*24:02 | ++++ (75% = ++++) |  | 
47 (LYIFTTRPF; listed as Homo sapiens) [compound 47] | HLA-A*24:02 | ++++ (75% = ++++) |  | 
49 (IYFHLNNWTI; listed as Homo sapiens) [compound 49] | HLA-A*24:02 | ++++ (75% = ++++) |  | 
62 (SFSLLLPYL; listed as Homo sapiens) [compound 62] | HLA-A*24:02 | +++ (50% = +++) |  | 
67 (GRFWLPFNF; listed as Homo sapiens) [compound 67] | HLA-A*24:02 | ++ (20% = ++) |  | 
69 (KYPTIICGF; listed as Homo sapiens) [compound 69] | HLA-A*24:02 | ++++ (75% = ++++) |  | 
76 (VQSGVPSRF; listed as Homo sapiens) [compound 76] | HLA-A*24:02 | ++ (20% = ++) |  | 
80 (IFDLSDPRF; listed as Homo sapiens) [compound 80] | HLA-A*24:02 | ++ (20% = ++) |  | 
87 (LHLNPGLSF; listed as Homo sapiens) [compound 87] | HLA-A*24:02 | ++ (20% = ++) |  | 
115 (LWEEKPVCL; listed as Homo sapiens) [compound 115] | HLA-A*24:02 | ++ (20% = ++) |  | 
116 (IYLTKSNLVNM; listed as Homo sapiens) [compound 116] | HLA-A*24:02 | ++++ (75% = ++++) |  | 
123 (TYLESSVRI; listed as Homo sapiens) [compound 123] | HLA-A*24:02 | ++++ (75% = ++++) |  | 

Substance | Binders (HLA alleles the peptides according to the invention bind to) [1] | Peptide exchange (HLA-A*24:02) | Peptide exchange (HLA-A*02:01) | Peptide exchange (HLA-B*07:0)
132 (LYLETRSEF; listed as Homo sapiens) [compound 132] | HLA-A*24:02 | ++++ (75% = ++++) |  | 
133 (KFPPSASEF; listed as Homo sapiens) [compound 133] | HLA-A*24:02 | ++++ (75% = ++++) |  | 
158 (FQLSGPVTF; listed as Homo sapiens) [compound 158] | HLA-A*24:02 | ++ (20% = ++) |  | 
160 (EYLGSENVF; listed as Homo sapiens) [compound 160] | HLA-A*24:02 | +++ (50% = +++) |  | 
163 (LWALAIPSL; listed as Homo sapiens) [compound 163] | HLA-A*24:02 | +++ (50% = +++) |  | 
164 (SHSSPTVSF; listed as Homo sapiens) [compound 164] | HLA-A*24:02 | ++ (20% = ++) |  | 
165 (FYNPRPPLI; listed as Homo sapiens) [compound 165] | HLA-A*24:02 | ++++ (75% = ++++) |  | 
173 (IFTGRNAYF; listed as Homo sapiens) [compound 173] | HLA-A*24:02 | ++++ (75% = ++++) |  | 
177 (SYLKDHLSL; listed as Homo sapiens) [compound 177] | HLA-A*24:02 | ++++ (75% = ++++) |  | 
180 (QYLTYYPSF; listed as Homo sapiens) [compound 180] | HLA-A*24:02 | ++++ (75% = ++++) |  | 
183 (VFVISGSHLF; listed as Homo sapiens) [compound 183] | HLA-A*24:02 | ++++ (75% = ++++) |  | 
186 (SQIKSPVVF; listed as Homo sapiens) [compound 186] | HLA-A*24:02 | + (10% = +) |  | 
189 (IWRALGSLF; listed as Homo sapiens) [compound 189] | HLA-A*24:02 | ++++ (75% = ++++) |  | 
194 (VLYPSHSSF; listed as Homo sapiens) [compound 194] | HLA-A*24:02 | ++ (20% = ++) |  | 
195 (AWNESSAWLL; listed as Homo sapiens) [compound 195] | HLA-A*24:02 | ++++ (75% = ++++) |  | 
199 (RAPLPLLLL; listed as Homo sapiens) [compound 199] |  |  |  | +++ (≥50% = +++)
201 (VWILQKVNLAF; listed as Homo sapiens) [compound 201] | HLA-A*24:02 | +++ (50% = +++) |  | 
207 (LPALLRSL; listed as Homo sapiens) [compound 207] |  |  |  | ++++ (≥75% = ++++)
208 (YVGPTRLEL; listed as Homo sapiens) [compound 208] |  |  |  | ++++ (≥75% = ++++)
210 (ASRIQVILL; listed as Homo sapiens) [compound 210] |  |  |  | +++ (≥50% = +++)
214 (RPSPVRVAAL; listed as Homo sapiens) [compound 214] |  |  |  | ++++ (≥75% = ++++)
215 (TPLTRTTL; listed as Homo sapiens) [compound 215] |  |  |  | +++ (≥50% = +++)
